Data as given in publication PMC3844076 (Nature, 2013).

Molecular target: the molecule itself
Assay: SEC

B1: EncM (as used for size exclusion chromatography) (enzyme, Streptomyces maritimus, UniProt Q9KHK2 1-464, looked up)
chain: MQFPQLDPATLAAFSAAFRGELIWPSDADYDEARRIWNGTIDRRPALIARCTSTPDVVAAVSFARKSGLLVAVRGGGHSMAGHSVCDGGIVIDLSLMNSIKVSRRLRRARAQGGCLLGAFDTATQAHMLATPAGVVSHTGLGGLVLGGGFGWLSRKYGLSIDNLTSVEIVTADGGVLTASDTENPDLFWAVRGGGGNFGVVTAFEFDLHRVGPVRFASTYYSLDEGPQVIRAWRDHMATAPDELTWALYLRLAPPLPELPADMHGKPVICAMSCWIGDPHEGERQLESILHAGKPHGLTKATLPYRALQAYSFPGAVVPDRIYTKSGYLNELSDEATDTVLEHAADIASPFTQLELLYLGGAVARVPDDATAYPNRQSPFVTNLAAAWMDPTEDARHTAWAREGYRALAGHLSGGYVNFMNPGEADRTREAYGAAKFERLQGVKAKYDPTNLFRLNQNIPPSSP
modifications: FAD covalently linked to His78 via the C8-methyl of the isoalloxazine ring
stoichiometry N: 2
